Reference: US8034572B2, “Receptor for GDNF family ligands” (priority 2006, dated 2011)

Key:
[1] = tested on: rat embryonic hippocampal neurons; test: Neurite outgrowth assay in E17 rat hippocampal neurons; type: cell-based
Experimental: Hippocampi were dissected from E17 embryonic rat brains under the microscope and transferred to the preparation media (HBBS without Ca^2+ and Mg^2+ supplemented with 1 mM sodium pyruvate (Gibco) and buffered by 10 mM Hepes pH 7.2), then partially digested by papain and triturated in the preparation media supplemented with DNase I. Cells were washed with HBBS containing Ca^2+ and Mg^2+ and transferred to the growth media (Neurobasal media with B27 supplement, 2 mM L-glutamine, 25 μM glutamic acid and penicillin and streptomycin (Gibco)). For enzymatic treatments neurons were kept in the growth media supplemented with 0.2% BSA at +37° C. for one hour. After the treatment cells in the same media were seeded on the protein-coated cover slips (see above) and after 10 min, the media was changed for B27-free media. Neurons were incubated at +37° C., 5% CO2 for 18 hours.
For immunocytochemistry neurons were washed with PBS and fixed with 4% PFA, permeabilized with 0.1% Triton X-100 and stained with rabbit polyclonal antiserum to Protein Gene Product 9.5 (Affiniti), neuron-specific Class III tubulin-βIII clone Tuj1 antibodies (BABCO) or with antibodies against the neurofilament triplet, 13AA8 (Arumäe et al., 1993). Secondary antibodies were goat anti-rabbit or anti-mouse Alexa488-conjugated (Molecular Probes).
The immunostained cultures were viewed using the ×20 objective of a Zeiss Axioplan 2 fluorescent microscope (Zeiss). Neurons with at least two times longer than cell body diameter processes were considered process-bearing. Three cover slips were used in parallel and 100 neurons per cover slip were counted. Results were derived from 3 to 5 independent experiments.

[2] = SPR (IAsys): GFLs interaction with heparin-BSA cuvette; type: binding
Experimental: The affinities of GFLs for heparin and heparin-like molecules (e.g. syndecan-3) were determined by plasmon surface resonance using the IAsys system (Affinity Sensors, Cambridge, UK). Planar aminosilane cuvettes (Affinity Sensors) were used for protein coupling to avoid problems with mass transport, which occur frequently with matrix surfaces. In the initial approach, heparin-BSA was immobilized to the cuvette surface using the manufacturer's instructions and different ligand concentrations were used to determine association (ka) and dissociation (kdis) rates using the IAsys Fastfit software. The dissociation constant Kd was determined from the binding dynamics as […], or from equilibrium response (R) using a simple Langmuir fit: R=(Rmax*C)/(Kd+C), where C is the ligand concentration. […] The dissociation constants were determined from binding dynamics and equilibrium response. The same cuvettes were used to test binding of heparan sulfate proteoglycan syndecan-3, which was purified as an ectodomain from early postnatal rat brains by HB-GAM affinity chromatography (Raulo et al., 1994).
Binding was analyzed using IAsys cuvettes with immobilized heparin-BSA or GFLs. The dissociation constant Kd was determined from dynamics of association and dissociation (Kd=kdis/ka), or from equilibrium response R (R=(Rmax*C)/(Kd+C), where C is ligand concentration).

B1: GDNF: Glial cell line-derived neurotrophic factor, secreted growth factor, GDNF family ligand (protein)
chain: SPDKQMAVLPRRERNRQAAAANPENSRGKGRRGQRGKNRGCVLTAIHLNVTDLGLGYETKEELIFRYCSGSCDAAETTYDKILKNLSRNRRLVSDKVGQACCRPIAFDDDLSFLDDNLVYHILRKHSAKRCGCI
[1]; E17 rat hippocampal neurons, 18 hours
  neurite outgrowth on immobilized protein: stimulated neurite outgrowth
[1]; soluble GDNF added to neurons grown on BSA-matrix
  neurite outgrowth with soluble protein: failed to induce neurites
[2]; GFL in solution
  ka (×10^−5) (M^−1s^−1): 3.7 (×10^−5) M^−1s^−1
  kdis: 0.017 s⁻¹
[2]; from dynamics
  Kd = kdis/ka: 47.3 ± 9.9 nM
[2]; from equilibrium response
  Kd: 51.3 ± 3.6 nM
